Measured values published in PMC7948409.

Key:
[1] = molecular target: F-actin (actin filaments) from rabbit leg and back muscle (UniProt P68135); test: single-molecule TIRF microscopy; in vitro motility assay under TIRF; HMM (342.8 nM incubation) on TMCS glass; Alexa-488 phalloidin F-actin propelled with 1 mM MgATP; 5 nM Alexa-647 gelsolin; pCa 8.2; 23 °C; settings: other: single-molecule TIRF microscopy
[2] = molecular target: F-actin (actin filaments) from rabbit leg and back muscle (rabbit) (UniProt P68135); test: as above
[3] = molecular target: F-actin (actin filaments) from rabbit leg and back muscle (rabbit) (UniProt P68135); test: single-molecule TIRF microscopy; HMM (34.2 nM incubation) adsorbed on TMCS glass; rhodamine phalloidin F-actin (5 nM) held stationary in rigor, no MgATP; 5 nM Alexa-647 gelsolin in solution; no added Ca2+ (pCa > 9); 23 °C; 9 min observation

| gelsolin molecules bound per filament [2] [per filament] | percent of HMM-propelled actin filaments with bound labeled gelsolin [2] [%] | gelsolin attachments per filament during 9 min [3] [per filament] | Substance | percent of sliding filaments with bound gelsolin, corrected for the labeling efficiency [1] |
| --- | --- | --- | --- | --- |
|  |  |  | Alexa-647-labeled gelsolin (His-tagged recombinant full-length human cytoplasmic gelsolin) | approximately 55% of all sliding filaments have bound gelsolin |
| 1 | 36.5 | 1.7 | Alexa-647-labeled gelsolin (His-tagged recombinant full-length human cytoplasmic gelsolin) (natural protein) |  |
